Measurements published in PMC13534702, “Polo/PLK1 phosphorylation relieves Centrosomin/Cnn autoinhibition to promote centrosome scaffold assembly” (The EMBO Journal, 2026).
Each block holds one binder with its values, some of them ahead of it.

B4: MBP-Cnn_(490-608) WT (domain or fragment, Drosophila melanogaster, UniProt P54623-2 490-608, looked up)
chain: DQQNSAVIGQLRLELQQARTEVETADKWRLECVDVCSVLTNRLEELAGFLNSLLKHKDVLGVLAADRRNAMRKAVDRSLDLSKSLNMTLNITATSLADQSLAQLCNLSEILYTEGDASH
notes: I take the same protein to have been used there; source: E. coli BL21 (DE3), purified; not shown: MBP, N-terminal, kept

Columns and labels:
[1] = molecular target: T1, Full-length SPD-5-GFP (C. elegans), P91349; experiment: mass photometry; full-length GFP fusions in solution; 20 mM HEPES, 150 mM KCl, pH 7.25; low nanomolar concentration (10 nM final by the procedure of the standards); conditions: remark: other sources report otherwise
T1 chain: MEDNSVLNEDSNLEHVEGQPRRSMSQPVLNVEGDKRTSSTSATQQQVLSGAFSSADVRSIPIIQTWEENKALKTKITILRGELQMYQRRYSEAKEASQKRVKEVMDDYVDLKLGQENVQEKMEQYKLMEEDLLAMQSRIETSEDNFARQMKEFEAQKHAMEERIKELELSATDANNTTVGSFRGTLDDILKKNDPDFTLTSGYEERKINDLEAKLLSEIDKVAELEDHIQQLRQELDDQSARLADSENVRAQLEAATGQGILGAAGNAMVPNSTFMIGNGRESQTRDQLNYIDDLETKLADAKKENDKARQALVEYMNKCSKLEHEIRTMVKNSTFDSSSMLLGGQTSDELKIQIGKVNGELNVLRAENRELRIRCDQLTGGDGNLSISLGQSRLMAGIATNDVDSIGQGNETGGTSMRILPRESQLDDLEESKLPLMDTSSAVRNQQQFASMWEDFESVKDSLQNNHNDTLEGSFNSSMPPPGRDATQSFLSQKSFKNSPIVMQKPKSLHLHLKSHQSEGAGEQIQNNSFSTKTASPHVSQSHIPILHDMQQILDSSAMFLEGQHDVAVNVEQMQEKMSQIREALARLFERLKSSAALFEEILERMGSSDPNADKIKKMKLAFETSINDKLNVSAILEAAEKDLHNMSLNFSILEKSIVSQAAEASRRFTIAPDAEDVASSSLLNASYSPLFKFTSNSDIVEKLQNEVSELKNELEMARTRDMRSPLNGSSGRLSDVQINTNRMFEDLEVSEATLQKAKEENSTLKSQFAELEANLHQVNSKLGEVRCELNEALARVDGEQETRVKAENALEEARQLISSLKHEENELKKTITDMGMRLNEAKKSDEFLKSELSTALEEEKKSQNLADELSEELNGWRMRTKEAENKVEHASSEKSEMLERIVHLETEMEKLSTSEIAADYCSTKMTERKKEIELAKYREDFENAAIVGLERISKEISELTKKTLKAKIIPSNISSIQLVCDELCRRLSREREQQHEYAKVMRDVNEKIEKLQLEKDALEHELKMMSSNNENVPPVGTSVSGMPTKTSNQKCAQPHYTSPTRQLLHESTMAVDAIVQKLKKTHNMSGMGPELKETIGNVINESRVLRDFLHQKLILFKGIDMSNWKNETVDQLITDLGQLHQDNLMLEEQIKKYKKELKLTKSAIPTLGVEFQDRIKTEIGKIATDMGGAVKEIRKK

[2] = molecular target: the molecule itself; experiment: as above
[3] = molecular target: T2, Cnn_(490-608), tag cleaved (SEC-MALS) (Drosophila melanogaster, UniProt P54623-2 490-608); experiment: SEC-MALS; Cnn 490-608 mixed with CM2; Superdex 75 or Superdex 200 10/300 Increase; 20 mM Tris pH 7.5, 150 mM NaCl, 0.5 mM TCEP; 0.5 mL/min; fraction checked on an SDS gel; conditions: both partners purified
T2 construct: also called PReMΔH1ΔNTH2; source: E. coli BL21 (DE3), purified, tag cleaved for SEC-MALS; not shown: His6, N-terminal, cleaved; MBP, N-terminal, cleaved
T2 sequence (looked up): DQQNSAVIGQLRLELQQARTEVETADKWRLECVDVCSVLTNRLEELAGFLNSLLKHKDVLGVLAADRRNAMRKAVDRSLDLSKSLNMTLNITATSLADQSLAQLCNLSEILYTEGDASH

[4] = molecular target: T3, MBP-Cnn_(490-608) 2E (S567E/S571E) (Drosophila melanogaster, UniProt P54623-2 490-608, S567E | S571E); experiment: SEC; PReM domain (Cnn 490-608) variants mixed with CM2; fractions checked on SDS gels; conditions: both partners purified
T3 construct: also called 2E mutant; source: E. coli BL21 (DE3), purified; not shown: MBP, N-terminal, kept
T3 sequence (looked up): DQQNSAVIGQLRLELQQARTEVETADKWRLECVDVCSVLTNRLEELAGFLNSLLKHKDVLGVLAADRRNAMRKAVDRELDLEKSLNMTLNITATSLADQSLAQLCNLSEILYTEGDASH

[5] = molecular target: B4; experiment: as above; conditions: both partners purified
[6] = molecular target: the molecule itself; experiment: SEC; MBP-Cnn 490-608 variants run alone; absorbance at 280 nm; size judged from the elution volume

stoichiometry N [1]: 2
B1: Full-length SPD-5-GFP, P91349 1-1198 (natural protein)
chain: MEDNSVLNEDSNLEHVEGQPRRSMSQPVLNVEGDKRTSSTSATQQQVLSGAFSSADVRSIPIIQTWEENKALKTKITILRGELQMYQRRYSEAKEASQKRVKEVMDDYVDLKLGQENVQEKMEQYKLMEEDLLAMQSRIETSEDNFARQMKEFEAQKHAMEERIKELELSATDANNTTVGSFRGTLDDILKKNDPDFTLTSGYEERKINDLEAKLLSEIDKVAELEDHIQQLRQELDDQSARLADSENVRAQLEAATGQGILGAAGNAMVPNSTFMIGNGRESQTRDQLNYIDDLETKLADAKKENDKARQALVEYMNKCSKLEHEIRTMVKNSTFDSSSMLLGGQTSDELKIQIGKVNGELNVLRAENRELRIRCDQLTGGDGNLSISLGQSRLMAGIATNDVDSIGQGNETGGTSMRILPRESQLDDLEESKLPLMDTSSAVRNQQQFASMWEDFESVKDSLQNNHNDTLEGSFNSSMPPPGRDATQSFLSQKSFKNSPIVMQKPKSLHLHLKSHQSEGAGEQIQNNSFSTKTASPHVSQSHIPILHDMQQILDSSAMFLEGQHDVAVNVEQMQEKMSQIREALARLFERLKSSAALFEEILERMGSSDPNADKIKKMKLAFETSINDKLNVSAILEAAEKDLHNMSLNFSILEKSIVSQAAEASRRFTIAPDAEDVASSSLLNASYSPLFKFTSNSDIVEKLQNEVSELKNELEMARTRDMRSPLNGSSGRLSDVQINTNRMFEDLEVSEATLQKAKEENSTLKSQFAELEANLHQVNSKLGEVRCELNEALARVDGEQETRVKAENALEEARQLISSLKHEENELKKTITDMGMRLNEAKKSDEFLKSELSTALEEEKKSQNLADELSEELNGWRMRTKEAENKVEHASSEKSEMLERIVHLETEMEKLSTSEIAADYCSTKMTERKKEIELAKYREDFENAAIVGLERISKEISELTKKTLKAKIIPSNISSIQLVCDELCRRLSREREQQHEYAKVMRDVNEKIEKLQLEKDALEHELKMMSSNNENVPPVGTSVSGMPTKTSNQKCAQPHYTSPTRQLLHESTMAVDAIVQKLKKTHNMSGMGPELKETIGNVINESRVLRDFLHQKLILFKGIDMSNWKNETVDQLITDLGQLHQDNLMLEEQIKKYKKELKLTKSAIPTLGVEFQDRIKTEIGKIATDMGGAVKEIRKK

B2: Full-length Cnn-GFP (natural protein, Drosophila melanogaster, UniProt P54623-2 1-1148, looked up)
chain: MDQSKQVLRDYCGDGNGTCASSLKEITLIETVTSFLEENGAAEIDRRVLRKLAEALSKSIDDTSPGALQDVTMENSYASFDVPRPPGGGNSPLPSQGRSVRELEEQMSALRKENFNLKLRIYFLEEGQPGARADSSTESLSKQLIDAKIEIATLRKTVDVKMELLKDAARAISHHEELQRKADIDSQAIIDELQEQIHAYQMAESGGQPVENIAKTRKMLRLESEVQRLEEELVNIEARNVAARNELEFMLAERLESLTACEGKIQELAIKNSELVERLEKETASAESSNANRDLGAQLADKICELQEAQEKLKERERIHEQACRTIQKLMQKLSSQEKEIKKLNQENEQSANKENDCAKTVISPSSSGRSMSDNEASSQEMSTNLRVRYELKINEQEEKIKQLQTEVKKKTANLQNLVNKELWEKNREVERLTKLLANQQKTLPQISEESAGEADLQQSFTEAEYMRALERNKLLQRKVDVLFQRLADDQQNSAVIGQLRLELQQARTEVETADKWRLECVDVCSVLTNRLEELAGFLNSLLKHKDVLGVLAADRRNAMRKAVDRSLDLSKSLNMTLNITATSLADQSLAQLCNLSEILYTEGDASHKTFNSHEELHAATSMAPTVENLKAENKALKKELEKRRSSEGQRKERRSLPLPSQQFDNQSESEAWSEPDRKVSLARIGLDETSNSLAAPEQAISESESEGRTCATRQDRNRNSERIAQLEEQIAQKDERMLNVQCQMVELDNRYKQEQLRCLDITQQLEQLRAINEALTADLHAIGSHEEERMVELQRQLELKNQQIDQLKLAHSTLTADSQITEMELQALQQQMQEIEQLHADSVETLQSQLQKLKLDAVQQLEEHERLHREALERDWVALTTYQEQAQQLLELQRSLDYHQENEKELKQTLVENELATRALKKQLDESTLQASKAVMERTKAYNDKLQLEKRSEELRLQLEALKEEHQKLLQKRSNSSDVSQSGYTSEEVAVPMGPPSGQATTCKQAAAAVLGQRVNTSSPDLGIESDAGRISSVEVSNAQRAMLKTVEMKTEGSASPKAKSEESTSPDSKSNVATGAATVHDCAKVDLENAELRRKLIRTKRAFEDTYEKLRMANKAKAQVEKDIKNQILKTHNVLRNVRSNMENEL
notes: Centrosomin (Cnn), Drosophila melanogaster, full length, synthesised gene; also called Cnn-WT; not shown: MBP, N-terminal, cleaved; mGFP, C-terminal, kept; His10, C-terminal, cleaved
stoichiometry N [2]: 2

binding result [3]: binds
binding result [4]: binds
binding result [5]: binds
B3: Drosophila Cnn CM2 domain (domain or fragment, Drosophila melanogaster, UniProt P54623-2 1082-1148, looked up)
chain: HDCAKVDLENAELRRKLIRTKRAFEDTYEKLRMANKAKAQVEKDIKNQILKTHNVLRNVRSNMENEL
notes: the EM methods print 1077-1148; The methods say that the N-terminal tag was cleaved for SEC-MALS, crystallisation or further use; also called DmCM2; fly CM2; source: E. coli BL21 (DE3), purified

Binder: B4
stoichiometry N [6]: 2

B5: MBP-Cnn_(490-608) 2A (S567A/S571A) (domain or fragment, Drosophila melanogaster, UniProt P54623-2 490-608, looked up)
chain: DQQNSAVIGQLRLELQQARTEVETADKWRLECVDVCSVLTNRLEELAGFLNSLLKHKDVLGVLAADRRNAMRKAVDRALDLAKSLNMTLNITATSLADQSLAQLCNLSEILYTEGDASH
notes: also called 2A-mutant PReM; source: E. coli BL21 (DE3), purified; not shown: MBP, N-terminal, kept
stoichiometry N [6]: 2
